24 molecules from US20160326228A1 (ACCELERON PHARMA, published 2016) can be followed below.

Assay [1] deals with T1, Activin A (UniProt P08476 311-426).
T1 construct: also called ActA
T1 sequence (looked up): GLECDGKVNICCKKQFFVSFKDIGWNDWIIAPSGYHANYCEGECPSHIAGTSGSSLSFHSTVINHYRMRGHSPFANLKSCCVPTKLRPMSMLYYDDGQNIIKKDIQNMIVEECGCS
Kind of assay: BiaCore; receptor-Fc captured by anti-hFc antibody, ligand injected. On the procedure: (§1) Binding of certain ActRIIB-Fc proteins and GDF Traps to ligands was tested in a BiaCore™ assay.
(§2) The ActRIIB-Fc variants or wild-type protein were captured onto the system using an anti-hFc antibody. Ligands were injected and flowed over the captured receptor proteins.
In general terms: Surface plasmon resonance follows binding to a sensor surface in real time, without labels.

For assay [2], the target named is T2, Growth and Differentiation Factor-8 (GDF8) (UniProt O14793 267-375).
T2 construct: also called myostatin
T2 sequence (looked up): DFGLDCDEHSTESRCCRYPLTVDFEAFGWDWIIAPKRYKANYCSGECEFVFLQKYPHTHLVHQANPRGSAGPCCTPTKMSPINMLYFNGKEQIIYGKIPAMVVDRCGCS
Described as above. The procedure: as §1, §2

In assay [3] the target is T3, Growth and Differentiation Factor-11 (GDF11) (UniProt O95390 299-407).
T3 construct: also called BMP11
T3 sequence (looked up): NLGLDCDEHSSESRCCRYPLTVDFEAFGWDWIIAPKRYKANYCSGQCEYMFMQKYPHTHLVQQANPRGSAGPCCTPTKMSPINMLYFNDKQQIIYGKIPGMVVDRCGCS
The assay is described as above. On the procedure: as §1, §2

The target in assay [4] is T3, Growth and Differentiation Factor-11 …. Kind of assay: BiaCore; ligand coupled, receptor flowed over.
The target of assay [5] is T1, Activin A. Description: BiaCore; ligand coupled, receptor flowed over.
Assay [6] concerns the target T3, Growth and Differentiation Factor-11 …. Kind of assay: BiaCore; ligand coupled, receptor flowed over; legend: <1/5 WT binding.

B1: ActRIIB(R64K 20-129)-hFc (Fc fusion)
chain: GRGEAETRECIYYNANWELERTNQSGLERCEGEQDKRLHCYASWKNSSGTIELVKKGCWLDDFNCYDRQECVATEENPQVYFCCCEGNFCNERFTHLPEAGGPEVTYEPP
notes: not shown: linker (if any) and human Fc (hFc)
For B1, in the assay with Activin A [1], the Kd (usually the constant that tells how readily two partners part at equilibrium) stood at 0.0841 nM; the koff (as a rule, the first-order rate constant of dissociation) was found to be 0.000628 s⁻¹; the association rate constant (kon) (usually a measure of how fast the partners come together) turned out to be 7.46e+06 M⁻¹ s⁻¹. In assay [2], binding was characterised by a dissociation constant (Kd) of 2.15 nM and the koff is 0.000209 s⁻¹.

B2: ActRIIB(L79E 20-134)-hFc (Fc fusion)
chain: GRGEAETRECIYYNANWELERTNQSGLERCEGEQDKRLHCYASWRNSSGTIELVKKGCWEDDFNCYDRQECVATEENPQVYFCCCEGNFCNERFTHLPEAGGPEVTYEPPPTAPTGGGTHTCPPCPAPELLGGPSVFLFPPKPKDTLMISRTPEVTCVVVDVSHEDPEVKFNWYVDGVEVHNAKTKPREEQYNSTYRVVSVLTVLHQDWLNGKEYKCKVSNKALPVPIEKTISKAKGQPREPQVYTLPPSREEMTKNQVSLTCLVKGFYPSDIAVEWESNGQPENNYKTTPPVLDSDGSFFLYSKLTVDKSRWQQGNVFSCSVMHEALHNHYTQKSLSLSPGK
In assay [3], B2 registered a Kd of 0.716 nM and a koff of 0.000274 s⁻¹. In assay [2], this molecule came in with a Kd of 2.41 nM and a koff of 0.0009 s⁻¹.

B3: Soluble ActRIIB-Fc WT (64A) (Fc fusion, UniProt Q13705 19-119, looked up)
chain: SGRGEAETRECIYYNANWELERTNQSGLERCEGEQDKRLHCYASWANSSGTIELVKKGCWLDDFNCYDRQECVATEENPQVYFCCCEGNFCNERFTHLPEA
notes: whole entry named; not shown: linker (if any) and Fc
As for B3, the Kd in assay [4] was 260 nM; with Activin A [5], 180 nM.

B4: ActRIIB(A24N 20-134)-hFc (Fc fusion)
chain: GRGENETRECIYYNANWELERTNQSGLERCEGEQDKRLHCYASWRNSSGTIELVKKGCWLDDFNCYDRQECVATEENPQVYFCCCEGNFCNERFTHLPEAGGPEVTYEPPPTAPT
notes: also called A24N variant; not shown: linker (if any) and human Fc (hFc)
B4: in assay [3], the Kd stood at 0.0519 nM and the koff came out at 6.35e-05 s⁻¹. In the assay with Activin A [1], this molecule showed a Kd of 0.104 nM, a koff of 0.000346 s⁻¹ and a kon of 3.34e+06 M⁻¹ s⁻¹.

B5: ActRIIB(P129S, P130R 20-134)-hFc (Fc fusion)
chain: GRGEAETRECIYYNANWELERTNQSGLERCEGEQDKRLHCYASWRNSSGTIELVKKGCWLDDFNCYDRQECVATEENPQVYFCCCEGNFCNERFTHLPEAGGPEVTYEPSRTAPT
notes: T0017 prints a P129S P130A variant; kept as a separate molecule; not shown: linker (if any) and human Fc (hFc)
In the assay with Activin A [1], B5 displayed a Kd of 0.0831 nM, a koff of 0.000417 s⁻¹ and a kon of 5.02e+06 M⁻¹ s⁻¹. Also, in assay [2], the Kd turned out to be 1.67 nM and the koff was 0.00018 s⁻¹.

B6: ActRIIB(R64K 20-134)-hFc (Fc fusion)
chain: GRGEAETRECIYYNANWELERTNQSGLERCEGEQDKRLHCYASWKNSSGTIELVKKGCWLDDFNCYDRQECVATEENPQVYFCCCEGNFCNERFTHLPEAGGPEVTYEPPPTAPT
notes: as for B1
As to B6, the Kd in assay [3] was determined as 0.0356 nM; with Activin A [1], 0.0476 nM; in assay [2] it was 0.21 nM. The dissociation rate constant (koff) turned out to be 2.41e-05 s⁻¹ in assay [3], 0.000325 s⁻¹ with Activin A [1] and 4.71e-05 s⁻¹ in assay [2]. The molecule also registered a kon in the assay with Activin A [1] of 6.82e+06 M⁻¹ s⁻¹.

B7: ActRIIB(K74A 20-134)-hFc (Fc fusion)
chain: GRGEAETRECIYYNANWELERTNQSGLERCEGEQDKRLHCYASWRNSSGTIELVAKGCWLDDFNCYDRQECVATEENPQVYFCCCEGNFCNERFTHLPEAGGPEVTYEPPPTAPT
notes: as for B1
For the molecule B7, in assay [2], binding was characterised by a dissociation constant (Kd) of 0.0718 nM and the koff stood at 2.03e-05 s⁻¹.

B8: Soluble ActRIIB-Fc variant D54A (Fc fusion)
chain: GRGEAETRECIYYNANWELERTNQSGLERCEGEQAKRLHCYASWANSSGTIELVKKGCWLDDFNCYDRQECVATEENPQVYFCCCEGNFCNERFTHLPEA
notes: as for B3
With B8, the binding result in assay [4] was “no binding”.

B9: Soluble ActRIIB-Fc variant D80K (Fc fusion)
chain: GRGEAETRECIYYNANWELERTNQSGLERCEGEQDKRLHCYASWANSSGTIELVKKGCWLKDFNCYDRQECVATEENPQVYFCCCEGNFCNERFTHLPEA
notes: as for B3
Take B9: the binding result (in assay [4]; with Activin A [5]) was “no binding” in each case.

B10: Soluble ActRIIB-Fc variant D80N (Fc fusion)
chain: GRGEAETRECIYYNANWELERTNQSGLERCEGEQDKRLHCYASWANSSGTIELVKKGCWLNDFNCYDRQECVATEENPQVYFCCCEGNFCNERFTHLPEA
notes: as for B3
Turning to B10, the binding result (in assay [4]; with Activin A [5]) was “no binding” throughout.

B11: Soluble ActRIIB-Fc variant D80I (Fc fusion)
chain: GRGEAETRECIYYNANWELERTNQSGLERCEGEQDKRLHCYASWANSSGTIELVKKGCWLIDFNCYDRQECVATEENPQVYFCCCEGNFCNERFTHLPEA
notes: as for B3
For the molecule B11, the binding result with Activin A [5] is “no binding”. Also, the “binding relative to WT” value in assay [6] is less than 0.2 fold.

B12: Soluble ActRIIB-Fc variant K74A (Fc fusion)
chain: GRGEAETRECIYYNANWELERTNQSGLERCEGEQDKRLHCYASWANSSGTIELVAKGCWLDDFNCYDRQECVATEENPQVYFCCCEGNFCNERFTHLPEA
notes: as for B3
As for B12, the Kd in assay [4] was determined as 5.3 nM; with Activin A [5], 4.35 nM.

B13: Soluble ActRIIB-Fc variant D80R (Fc fusion)
chain: GRGEAETRECIYYNANWELERTNQSGLERCEGEQDKRLHCYASWANSSGTIELVKKGCWLRDFNCYDRQECVATEENPQVYFCCCEGNFCNERFTHLPEA
notes: as for B3
As for B13, the binding result (in assay [4]; in the assay with Activin A [5]) was “no binding” in each case.

B14: Soluble ActRIIB-Fc variant W78A (Fc fusion)
chain: GRGEAETRECIYYNANWELERTNQSGLERCEGEQDKRLHCYASWANSSGTIELVKKGCALDDFNCYDRQECVATEENPQVYFCCCEGNFCNERFTHLPEA
notes: as for B3
Take B14: the binding result (in assay [4]; with Activin A [5]) was “no binding” in each case.

B15: Soluble ActRIIB-Fc variant D80A (Fc fusion)
chain: GRGEAETRECIYYNANWELERTNQSGLERCEGEQDKRLHCYASWANSSGTIELVKKGCWLADFNCYDRQECVATEENPQVYFCCCEGNFCNERFTHLPEA
notes: as for B3
Turning to B15, the binding result (in assay [4]; with Activin A [5]) was “no binding” in each case.

B16: Soluble ActRIIB-Fc variant K74Y (Fc fusion)
chain: GRGEAETRECIYYNANWELERTNQSGLERCEGEQDKRLHCYASWANSSGTIELVYKGCWLDDFNCYDRQECVATEENPQVYFCCCEGNFCNERFTHLPEA
notes: as for B3
As to B16, the binding result with Activin A [5] is listed as “no binding”. Also, the “binding relative to WT” value in assay [6] was less than 0.2 fold.

B17: Soluble ActRIIB-Fc variant E37A (Fc fusion)
chain: GRGEAETRECIYYNANWALERTNQSGLERCEGEQDKRLHCYASWANSSGTIELVKKGCWLDDFNCYDRQECVATEENPQVYFCCCEGNFCNERFTHLPEA
notes: as for B3
In the case of B17, the binding result (in assay [4]; in the assay with Activin A [5]) was “no binding” each time.

B18: Soluble ActRIIB-Fc variant D80F (Fc fusion)
chain: GRGEAETRECIYYNANWELERTNQSGLERCEGEQDKRLHCYASWANSSGTIELVKKGCWLFDFNCYDRQECVATEENPQVYFCCCEGNFCNERFTHLPEA
notes: as for B3
Take B18: the binding result (in assay [4]; with Activin A [5]) was “no binding” each time.

B19: Soluble ActRIIB-Fc variant L79A (Fc fusion)
chain: GRGEAETRECIYYNANWELERTNQSGLERCEGEQDKRLHCYASWANSSGTIELVKKGCWADDFNCYDRQECVATEENPQVYFCCCEGNFCNERFTHLPEA
notes: as for B3
For B19, the binding result in assay [4] is recorded as “no binding”.

B20: Soluble ActRIIB-Fc variant K74F (Fc fusion)
chain: GRGEAETRECIYYNANWELERTNQSGLERCEGEQDKRLHCYASWANSSGTIELVFKGCWLDDFNCYDRQECVATEENPQVYFCCCEGNFCNERFTHLPEA
notes: as for B3
For the molecule B20, the binding result with Activin A [5] was “no binding”. In addition, the “binding relative to WT” value in assay [6] was less than 0.2 fold.

B21: Soluble ActRIIB-Fc variant D80M (Fc fusion)
chain: GRGEAETRECIYYNANWELERTNQSGLERCEGEQDKRLHCYASWANSSGTIELVKKGCWLMDFNCYDRQECVATEENPQVYFCCCEGNFCNERFTHLPEA
notes: as for B3
Regarding B21, the binding result (in assay [4]; with Activin A [5]) was “no binding” each time.

B22: Soluble ActRIIB-Fc variant K55A (Fc fusion)
chain: GRGEAETRECIYYNANWELERTNQSGLERCEGEQDARLHCYASWANSSGTIELVKKGCWLDDFNCYDRQECVATEENPQVYFCCCEGNFCNERFTHLPEA
notes: as for B3
As for B22, the binding result in assay [4] is recorded as “no binding”.

B23: Soluble ActRIIB-Fc variant R56A (Fc fusion)
chain: GRGEAETRECIYYNANWELERTNQSGLERCEGEQDKALHCYASWANSSGTIELVKKGCWLDDFNCYDRQECVATEENPQVYFCCCEGNFCNERFTHLPEA
notes: as for B3
Regarding B23, the binding result (in assay [4]; in the assay with Activin A [5]) was “no binding” in each case.

B24: Soluble ActRIIB-Fc variant D80G (Fc fusion)
chain: GRGEAETRECIYYNANWELERTNQSGLERCEGEQDKRLHCYASWANSSGTIELVKKGCWLGDFNCYDRQECVATEENPQVYFCCCEGNFCNERFTHLPEA
notes: as for B3
For the molecule B24, the binding result (in assay [4]; with Activin A [5]) was “no binding” in each case.
